Experimental findings from article PMC8056383, “Entropic Inhibition: How the Activity of a AAA+ Machine Is Modulated by Its Substrate-Binding Domain” (ACS Chemical Biology, 2021) are described below.

Data set [1] concerns the molecule itself. Nature of the data set: native gel or EMSA; native polyacrylamide gel electrophoresis; assembly of ClpB and ΔNClpB (Figure S2).
Data set [2] concerns the molecule itself. Description: native gel or EMSA; native gel electrophoresis in the presence of 2 mM ATP; assembly of the 23C-176C construct (Figure S1).

B1: ΔNClpB, Thermus thermophilus ClpB lacking the N-terminal domain (domain or fragment)
chain: not shown
notes: ClpB, Thermus thermophilus, variant beginning at residue 141 (Val); lacks the first 140 residues; In the smFRET experiments one S288C-S631C protomer labelled with AF488/AF594 sat in hexamers of unlabelled ΔNClpB; also called NTD-truncated ClpB; truncated variant; source: cloned into a pET28b vector, expressed and purified (protocol in the Supplementary Methods)
Turning to B1, in data set [1], the binding result is “binds”.

B2: Thermus thermophilus ClpB, full-length (natural protein)
chain: not shown
notes: ClpB, Thermus thermophilus, full-length protein (NTD, NBD1, MD, NBD2); also called TT ClpB; TT; ClpB; source: cloned into a pET28b vector, expressed and purified (protocol in the Supplementary Methods)
Consider B2, for which the binding result in data set [1] was “binds”.

B3: 23C-176C double-cysteine mutant of full-length ClpB, labelled with Alexa Fluor 488 and Alexa Fluor 594 (natural protein)
chain: not shown
modifications: Alexa Fluor 488 and Alexa Fluor 594 (C5 maleimide) on the cysteines at 23 and 176
notes: The ATPase assay used the fully labelled protein. smFRET and FLCS used one labelled protomer in hexamers of WT ClpB; source: cloned into a pET28b vector, expressed and purified (protocol in the Supplementary Methods)
For B3, the binding result in data set [2] is recorded as “binds”.
